From US20250346644A1 (LATTICON SUZHOU BIOPHARMACEUTICALS, published 2025)
Positions count from the first letter of the chain named.

B1: K1G1 (antibody, V domains shown)
VH: QVQLVQSGAEVKKPGATVKISCKVSGDTITAYYMHWVRQAPGQGLEWIGRIDPEDDSTKYAENFKGRVTITADTSTDTAYMELSSLRSEDTAVYYCTTVTFYYSRELRWFAYWGQGTLVTVSS
VL: DIVLTQSPATLSLSPGERATLSCQASQYISNYLSWYQQKPGQAPRLLIYQATSLASGIPARFSGSRSGTDFTLTISSLEPEDFAVYYCLQHYSTPYTFGQGTKLEIK
B2: K2G4 (antibody, V domains shown)
VH: B1 VH with Y102L
VL: B1 VL with Q50S
B3: K1G12 (antibody, V domains shown)
VH: B1 VH with E54D, V99I, Y102L, S104T
VL: B1 VL
B4: K2G7 (antibody, V domains shown)
VH: B1 VH with V99I, S104T
VL: B1 VL with Q50S
B5: K2G10 (antibody, V domains shown)
VH: B1 VH with E54D, V99I, S104T
VL: B1 VL with Q50S
B6: K1G11 (antibody, V domains shown)
VH: B1 VH with E54D, V99I, Y102L
VL: B1 VL
B7: K1G8 (antibody, V domains shown)
VH: B1 VH with V99I, Y102L
VL: B1 VL
B8: K1G9 (antibody, V domains shown)
VH: B1 VH with V99I, Y102L, S104T
VL: B1 VL
B9: K2G3 (antibody, V domains shown)
VH: B1 VH with E54D
VL: B1 VL with Q50S
B10: K2G5 (antibody, V domains shown)
VH: B1 VH with S104T
VL: B1 VL with Q50S
B11: K3G2 (antibody, V domains shown)
VH: B1 VH with V99I
VL: B1 VL with S30G
B12: K2G2 (antibody, V domains shown)
VH: B1 VH with V99I
VL: B1 VL with Q50S
B13: K2G6 (antibody, V domains shown)
VH: B1 VH with E54D, V99I
VL: B1 VL with Q50S
B14: K2G8 (antibody, V domains shown)
VH: B1 VH with V99I, Y102L
VL: B1 VL with Q50S
B15: K3G1 (antibody, V domains shown)
VH: B1 VH
VL: B1 VL with S30G

molecular target: T1, hIL2-DM-his (human, UniProt P60568 21-153); assay: BLI ForteBio, Ab on Protein A sensor
T1 construct: expressed in ExpiCHO-S cells, nickel-column purified; also called hIL-2 mutein containing two point mutations K64G and N90R (with a his-tag); not shown: his-tag
T1 sequence (P60568 21-153 K84G/N110R): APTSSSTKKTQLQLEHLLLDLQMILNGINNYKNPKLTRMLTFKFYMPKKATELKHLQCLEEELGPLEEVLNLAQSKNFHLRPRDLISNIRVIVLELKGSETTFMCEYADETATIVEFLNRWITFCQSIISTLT

Row | Kd | koff | kon | Binder
1 | 1.43 nM | 0.000491 s⁻¹ | 343000 M⁻¹ s⁻¹ | B1
2 | 1.08 nM | 0.000455 s⁻¹ | 421000 M⁻¹ s⁻¹ | B2
3 | 0.927 nM | 0.000396 s⁻¹ | 428000 M⁻¹ s⁻¹ | B3
4 | 1.35 nM | 0.000489 s⁻¹ | 361000 M⁻¹ s⁻¹ | B4
5 | 0.973 nM | 0.000418 s⁻¹ | 429000 M⁻¹ s⁻¹ | B5
6 | 0.928 nM | 0.000373 s⁻¹ | 401000 M⁻¹ s⁻¹ | B6
7 | 0.778 nM | 0.000291 s⁻¹ | 374000 M⁻¹ s⁻¹ | B7
8 | 0.856 nM | 0.000285 s⁻¹ | 333000 M⁻¹ s⁻¹ | B8
9 | 1.32 nM | 0.000512 s⁻¹ | 389000 M⁻¹ s⁻¹ | B9
10 | 1.4 nM | 0.000553 s⁻¹ | 396000 M⁻¹ s⁻¹ | B10
11 | 2.91 nM | 0.00118 s⁻¹ | 407000 M⁻¹ s⁻¹ | B11
12 | 1.33 nM | 0.000562 s⁻¹ | 424000 M⁻¹ s⁻¹ | B12
13 | 1.33 nM | 0.000593 s⁻¹ | 446000 M⁻¹ s⁻¹ | B13
14 | 1.13 nM | 0.000507 s⁻¹ | 448000 M⁻¹ s⁻¹ | B14
15 | 4.4 nM | 0.00186 s⁻¹ | 424000 M⁻¹ s⁻¹ | B15
